According to patent US20210130452A1:
Each block holds one binder with its values, some of them ahead of it.

Legend:
[1] = molecular target: T1, marmoset IL-17F (marmoset) (UniProt A6N6I9); assay: ELISA, coated IL-17F
T1 sequence (looked up): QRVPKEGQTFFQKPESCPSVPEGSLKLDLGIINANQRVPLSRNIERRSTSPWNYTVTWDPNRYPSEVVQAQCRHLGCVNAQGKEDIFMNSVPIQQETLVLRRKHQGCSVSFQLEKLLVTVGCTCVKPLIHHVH

[2] = molecular target: T2, human IL-17F (human) (UniProt Q96PD4); assay: AlphaScreen IL17F-RC
T2 sequence: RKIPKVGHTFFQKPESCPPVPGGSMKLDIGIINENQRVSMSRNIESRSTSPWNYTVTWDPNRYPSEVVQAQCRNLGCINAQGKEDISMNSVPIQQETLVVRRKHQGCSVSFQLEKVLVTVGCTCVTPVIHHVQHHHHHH

[3] = molecular target: human IL-17A (human) (UniProt Q16552); assay: AlphaScreen IL17A-RA
Sequence of human IL-17A (human) (Q16552 other isoform, or with tags, fused parts or gaps): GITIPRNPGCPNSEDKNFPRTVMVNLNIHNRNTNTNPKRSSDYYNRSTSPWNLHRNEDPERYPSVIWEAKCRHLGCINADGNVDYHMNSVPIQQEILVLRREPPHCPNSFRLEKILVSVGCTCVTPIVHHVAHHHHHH

[4] = molecular target: human serum albumin (human) (UniProt P02768); assay: SPR (Biacore), HSA
[5] = molecular target: marmoset IL-17A (marmoset); assay: ELISA, coated IL-17A
Sequence of marmoset IL-17A (marmoset) (chain, as listed by the source limits assumed): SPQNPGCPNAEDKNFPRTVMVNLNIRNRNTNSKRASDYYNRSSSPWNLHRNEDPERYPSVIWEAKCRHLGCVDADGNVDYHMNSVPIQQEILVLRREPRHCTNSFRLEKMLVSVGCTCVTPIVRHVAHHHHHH

[6] = molecular target: Cynomolgus monkey IL-17A (Cynomolgus monkey); assay: cell-based or functional assay
Sequence of Cynomolgus monkey IL-17A (Cynomolgus monkey) (chain, as listed by the source): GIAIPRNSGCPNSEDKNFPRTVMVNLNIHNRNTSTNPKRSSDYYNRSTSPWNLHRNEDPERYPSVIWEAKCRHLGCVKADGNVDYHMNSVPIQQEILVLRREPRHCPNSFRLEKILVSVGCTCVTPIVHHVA

[7] = molecular target: T3, Cynomolgus monkey IL-17F (Cynomolgus monkey) (UniProt G7P4V0); assay: cell-based or functional assay
T3 sequence: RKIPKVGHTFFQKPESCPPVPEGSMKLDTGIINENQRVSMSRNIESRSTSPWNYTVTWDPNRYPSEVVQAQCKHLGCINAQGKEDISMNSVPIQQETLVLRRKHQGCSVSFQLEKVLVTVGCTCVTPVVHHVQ

[8] = molecular target: T2, human IL-17F (human); assay: AlphaScreen IL17F-RA
[9] = molecular target: T2, human IL-17F (human); assay: cell-based or functional assay
[10] = molecular target: human IL-17A (human) (UniProt Q16552); assay: cell-based or functional assay
[11] = molecular target: human IL-17A/F heterodimer (human) (UniProt Q16552); assay: cell-based or functional assay
Sequence of human IL-17A/F heterodimer (human) (Q16552 24-155 limits assumed, one chain of several): as the sequence (chain, as listed by the source) above, with A3T, S8P, S34N, V77I, K78N, R104P counted along it

[12] = molecular target: human IL-17A/F heterodimer (human) (UniProt Q16552); assay: AlphaScreen IL17A/F-RC
[13] = molecular target: human IL-17A (human) (UniProt Q16552); assay: AlphaScreen IL17A-RC
[14] = molecular target: T2, human IL-17F (human); assay: AlphaScreen IL17F-RC + HSA
[15] = molecular target: human IL-17A/F heterodimer (human) (UniProt Q16552); assay: AlphaScreen IL17A/F-RA + HSA
[16] = molecular target: human IL-17A/F heterodimer (human) (UniProt Q16552); assay: AlphaScreen IL17A/F-RA
[17] = molecular target: human IL-17A (human) (UniProt Q16552); assay: AlphaScreen IL17A-RA + HSA

B1: 17C01 (VHH)
VHH: EVQLVESGGRLVQAGGSLRLPCAASGRTFTSYPMGWFRQAPGKEREFVAAISMSGDDAAYADFVRGRFTISRDDARNTVYLHMTSLKPEDTAVYYCAARTSYDGTYDYIDDYSYWGQGTQVTVSS
OD [1]: 0.0525 OD

B2: IL17MS0110 (bispecific antibody, part only; not given: linkers and anti-albumin Nanobody, not shown: small tags and cut ends)
chain, part: EVQLVESGGGLVQAGGSQRLSCTASGTIVNIHVMGWYRQAPGKQRELVALIFSGGSADYADSVKGRFTISRDNAKNTVYLEMNSLKAEDTAVYYCAAEIGYYSGGTYYSSEAHWGQGTQVTVSSEVQLVESGGGLVQAGGSLRLSCAASGRTFSSYVVGWFRQAPGKEREFIGAISGSGDSIYYAVSEKDRFTISRDNGKNTLYLQMSSLKAEDTAVYYCTADQEFGYLRFGRSEYWGQGTQVTVSS
IC50 [2]: 0.048 nM
IC50 [3]: 0.045 nM
koff [4]: 0.0061 s⁻¹

B4: IL17MS0154 (bispecific antibody, part only; not given: linkers and anti-albumin Nanobody, not shown: small tags and cut ends)
chain, part: EVQLVESGGGLVQAGGSLRLSCAASGRTFSSYVVGWFRQAPGKEREFIGAISGSGDSIYYAVSEKDRFTISRDNGKNTLYLQMSSLKAEDTAVYYCTADQEFGYLRFGRSEYWGQGTQVTVSSEVQLVESGGGLVQAGGSQRLSCTASGTIVNIHVMGWYRQAPGKQRELVALIFSGGSADYADSVKGRFTISRDNAKNTVYLEMNSLKAEDTAVYYCAAEIGYYSGGTYYSSEAHWGQGTQVTVSS
IC50 [2]: 0.047 nM
IC50 [3]: 0.056 nM
koff [4]: 0.0057 s⁻¹

B6: SH-Fc-(GS)2-13B03 (Fc fusion, not shown: a dimerising Fc or GST; small tags and cut ends)
chain: EVQLVESGGGSVQAGDSLRLSCAASGRANSINWFGWFRQTPGKEREFVAGIRWSDAYTEYANSVKGRFTISRDNAKNTVDLQMDSLKPEDTAVYYCVLDLSTVRYWGQGTQVTVSS
Emax, Cyno IL17A, HT-1080 bioassay [6]: 98%
IC50, Cyno IL17A, HT-1080 bioassay [6]: 0.37 nM
Emax, Cyno IL17F, HT-1080 bioassay [7]: 103%
IC50, Cyno IL17F, HT-1080 bioassay [7]: 5 nM

B7: SH-Fc-(GS)2-13E02 (Fc fusion, not shown: a dimerising Fc or GST; small tags and cut ends)
chain: EVQLVESGGGLVQAGGSLRLSCAASGRTYDAMGWLRQAPGKEREFVAAISGSGDDTYYADSVKGRFTISKDNAGITMYLQMNSLKPEDTAVYYCATRRGLYYVWDSNDYENWGQGTQVTVSS
Emax, Cyno IL17A, HT-1080 bioassay [6]: 100%
IC50, Cyno IL17A, HT-1080 bioassay [6]: 0.29 nM
Emax, Cyno IL17F, HT-1080 bioassay [7]: 87%
IC50, Cyno IL17F, HT-1080 bioassay [7]: 8.3 nM

The remaining lines, values ahead:

OD [5]: 0.122 OD
B3: 24G10 (VHH)
VHH: EVQLVESGGGLVQAGGSLRLSCGAAGGTFSSYATGWFRQAPGKEREFVAVFRWSDSHTAYADSVKGRFTISRDGAKNTLYLQMSSLKPEDTAIYYCTTATRPGEWDYWGQGTQVTVSS

OD [5]: 0.186 OD
B5: 07B11 (VHH)
VHH: EVQLVESGGGLVQAGGSLRLSCVASGRAFSSYVMGWFRQAPGMEREFVALIRWSDGITGYVDSVKGRFTISRDNAKNTVYLQMNSLKPEDTAVYYCAAAVRPGDYDYWGQGTQVTVSS

IC50 [8]: 1.09 nM
Emax, hIL-17F induced IL-6, HT-1080, 100 µM HSA [9]: 85%
Emax, hIL-17F induced IL-6, HT-1080, without HSA [9]: 102%
IC50, hIL-17F induced IL-6, HT-1080, 100 µM HSA [9]: 8.5 nM
IC50, hIL-17F induced IL-6, HT-1080, without HSA [9]: 7.35 nM
Emax, hIL-17A induced IL-6, HT-1080, 100 µM HSA [10]: 98%
Emax, hIL-17A induced IL-6, HT-1080, without HSA [10]: 105%
IC50, hIL-17A induced IL-6, HT-1080, 100 µM HSA [10]: 1.95 nM
IC50, hIL-17A induced IL-6, HT-1080, without HSA [10]: 0.83 nM
Emax, hIL-17A/F induced IL-6, HT-1080, 100 µM HSA [11]: 72%
IC50, hIL-17A/F induced IL-6, HT-1080, 100 µM HSA [11]: 1.47 nM
IC50 [12]: 0.051 nM
IC50 [2]: 0.046 nM
IC50 [13]: 0.367 nM
IC50 [3]: 0.161 nM
IC50 [14]: 0.056 nM
IC50 [15]: 0.095 nM
IC50 [16]: 0.128 nM
IC50 [17]: 0.203 nM
koff [4]: 0.0059 s⁻¹
B8: IL17MS0166 (bispecific antibody, part only; not given: linkers and anti-albumin Nanobody, not shown: small tags and cut ends)
chain, part: EVQLVESGGGLVQAGGSLRLSCGAAGGTFSSYATGWFRQAPGKEREFVAVFRWSDSHTAYADSVKGRFTISRDGAKNTLYLQMSSLKPEDTAIYYCTTATRPGEWDYWGQGTQVTVSSEVQLVESGGGLVQAGGSQRLSCTASGTIVNIHVMGWYRQAPGKQRELVALIFSGGSADYADSVKGRFTISRDNAKNTVYLEMNSLKAEDTAVYYCAAEIGYYSGGTYYSSEAHWGQGTQVTVSS
